# Reference: the supplement of paper PMC10567573
# ± gives the standard deviation.
# Assay: protein stability index of a GFP-peptide fusion (GPS, HEK-293T) (PSI 1-6); higher = more stable
# [1] = treatment: DMSO, c terminus: a fixed tail appended
# [2] = treatment: MLN4924 1 uM, 8 h, c terminus: a fixed tail appended
# 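Also: 24-mer peptide tiles fused after GFP, lentivirally expressed, FACS-sorted into six equal bins by GFP/DsRed ratio, decoded by Illumina sequencing, PSI is the read-weighted mean bin number.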
Sequence,protein stability index [1],protein stability index [2],"protein stability index (treatment: DMSO, c terminus: native)","protein stability index (treatment: MLN4924 1 uM, 8 h, c terminus: native)"
GKVLQNKQAEICQLEEKLEIANED [CCDC89],5.26 ± 0.37,5.44 ± 0.25,,
GFRESDSAKPASLRLLQHTPSARR [C6orf223],4.49 ± 0.38,4.67 ± 0.3,,
MFGLVIPLGVLQAIAMYFLPPSPR [SLC2A12],2.46 ± 0.64,2.53 ± 0.64,,
SAVADKLDNSRSILKRRYYRQHCT [CTDNEP1],3.24 ± 0.33,3.7 ± 0.49,,
ISFHFEVTNHNIRLFEDVRSWMFR [TRIM43],2.7 ± 0.96,3.24 ± 0.28,,
HVLLEGEGLGQSLGNFKDDLLNVC [TRIM29],3.06 ± 0.041,3.1 ± 0.17,,
ILVLKTDSQDLVASFRVTTGTSNT [RBBP5],2.2 ± 0.41,2.36 ± 0.53,,
TFFGTELAPVRQQELASLLRTYLA [PBXIP1],2.22 ± 0.29,2.48 ± 0.43,,
TLARMSRRTRGPVERAAAAAAAAA [C6orf223],3.02 ± 0.56,3.43 ± 0.91,,
NLTIRAGALTGKENNMLQPETHIF [DMRTC1],2.95 ± 0.21,3.17 ± 0.39,,
RKDMIAEKLAPSEITEELPSSQLM [ZNF396],4.98 ± 0.16,4.86 ± 0.27,,
WDKHACPAYVGPEILSSRASYSGK [TRIB3],3.53 ± 0.096,3.5 ± 0.24,,
DVFERDWYSPYAKTLQPTKQPNCS [PLD5],3.49 ± 0.54,3.24 ± 0.15,,
KVNQNQAKRCTVIGGSGFLGQHMV [NSDHL],2.22 ± 0.21,2.07 ± 0.2,,
ITEEKVCMVCKKKIGNSAFARYPN [VPS39],2.73 ± 0.31,3.43 ± 0.53,,
ERAAAQARRELQAEREALQARLRD [ZBED3],5.27 ± 0.21,5.33 ± 0.22,,
LPLMDLCRRSIRSALGRQRLQDIS [SPSB4],2.62 ± 0.12,2.53 ± 0.34,,
MAGRPHPYDGNSSDPENWDRKLHS [BTBD10],4.63 ± 0.086,4.71 ± 0.088,,
CQLALQQKRETLSPLCLIPMVTSP [KCTD13],2.27 ± 0.16,2.19 ± 0.17,,
KFKGWVSYSTSEQAELSYKKVSEG [DLC1],3.52 ± 0.22,3.54 ± 0.39,,
VFISSYMVLAPVFGYLGDRYNRKY [SPNS1],3.16 ± 0.49,2.87 ± 0.62,,
AGFCMFVLSLVKKHYRLQFYMFAW [CDS1],2.05 ± 0.36,2.16 ± 0.38,,
RKFYVHIKPAPARAPACSPEAAAA [FCHO1],2.66 ± 0.3,2.82 ± 0.35,,

Sequence,protein stability index [1],protein stability index [2],"protein stability index (treatment: DMSO, c terminus: native)","protein stability index (treatment: MLN4924 1 uM, 8 h, c terminus: native)"
LDRHQLPLDDALLSFAHANCTLII [DPCD],2.69 ± 0.56,2.63 ± 0.48,,
YYRGFTLFQTHENREHLVMMEKIL [CLK3],2.31 ± 0.31,2.34 ± 0.37,,
QPPEFRNESSLASTLKTLLFFTAL [VMA21],2.42 ± 0.32,2.39 ± 0.11,,
ILHLICLLEKVPCTLEQDHFKKQT [FEM1C],2.82 ± 0.71,2.25 ± 0.45,,
SLFIALITGAYDTIKHPGGAGAEE [MCOLN1],2.45 ± 0.58,2.2 ± 0.44,,
LPPDALIIEYRGKFMLREQFEANG [KMT2E],2.57 ± 0.31,2.63 ± 0.18,,
DTGVAFELRDSSAYHVPNRTLASG [DNAAF3],3.87 ± 0.18,3.94 ± 0.054,,
SPDLEWHAACLKCAECSQYLDETC [ISL2],4.04 ± 0.19,4.03 ± 0.39,,
EAEDQEEKEDAEKENIEKDEDDVD [SRPK2],5.66 ± 0.32,5.79 ± 0.2,,
SRDGMNIVLNKINQILMEKYLKLQ [INTS3],3.05 ± 0.81,2.43 ± 0.58,,
ELLWKLQTGDPTSPIKLSPTSPVY [MTUS2],2.3 ± 0.32,2.36 ± 0.16,,
FAPLWEVFRVSSDKLALCHLELTR [FCHO1],2.68 ± 0.36,2.52 ± 0.29,,
ETLLGDPEKRTQYFDPLRNEYFFD [KCNA4],2.91 ± 0.48,3.81 ± 0.9,,
YPPQMGEEYSQIIYSTKLYRFFKY [BTBD10],2.88 ± 0.71,2.73 ± 0.83,,
GPGIPPLMPGMPPGMPPPVPRPGI [ZNF207],4.29 ± 0.23,4.35 ± 0.33,,
EREAEKEQKRLERLQRKLVEPKHC [SDE2],4.7 ± 0.17,4.82 ± 0.085,,
LLYLLHILLLDGAAWLTLWVFGTS [FADS1],3.38 ± 0.24,2.49 ± 0.25,,
IEDLRAQIFANTVDNARIVLQIDN [KRT18],2.6 ± 0.24,2.67 ± 0.35,,
TAFLPDSKCLVDDGTGRMPTLKKC [GALNT9],4.17 ± 0.18,4.16 ± 0.31,,
GKIDFPRHLDFHVKDLIKKLLVVD [PRKX],2.44 ± 0.48,1.97 ± 0.078,,
GSSETNLLQHLLEACGRCEEVPEA [PYCR3],3.74 ± 0.19,4.19 ± 0.14,,
GRGAQGENERVRGLETGDWGGAPK [ZSWIM9],5 ± 0.21,4.98 ± 0.24,,
HYDLLNLNGTKVAEGHKASFCLED [LOXL2],4.12 ± 0.5,4.26 ± 0.34,,

Sequence,protein stability index [1],protein stability index [2],"protein stability index (treatment: DMSO, c terminus: native)","protein stability index (treatment: MLN4924 1 uM, 8 h, c terminus: native)"
QAPGQPPGNQAEHGAVTVGGTSVG [ZBTB22],4.9 ± 0.43,5.17 ± 0.21,,
VLDLQRIFALYSSLKFKSRVPQTW [PLD5],3.19 ± 0.94,2.09 ± 0.26,,
VVETVFFLTSRTRALLRRFPRMLL [ZSWIM9],2.89 ± 0.095,2.87 ± 0.3,,
FTCDEENVFAAVGRGLYVYSLQMK [WDR41],2.57 ± 0.56,2.38 ± 0.093,,
ELDILPIHPPSGNSDLDPDAQNPM [BTBD10],5.45 ± 0.16,5.38 ± 0.16,,
GARQQQVTTYLHKDYNNLWIIKKH [POMT2],2.49 ± 0.27,2.58 ± 0.35,,
NIHQLQNRLSELEVANKDLTERKY [SASS6],3.42 ± 0.15,3.62 ± 0.34,,
SAAPSNDQDGEYCPEVKLKTTGLE [SRPK2],5.28 ± 0.28,5.26 ± 0.26,,
DQNASTHTPQSSVKTSVPSSKSSG [CLINT1],5.02 ± 0.24,5.2 ± 0.14,,
RCFYTRKDVRRHLVVHTGCKDFLC [PLAGL1],2.11 ± 0.47,2.19 ± 0.39,,
ASFHHKLHHKRLAKECMLQEENKS [CBY2],4.1 ± 0.26,4.27 ± 0.2,,
AQEVRPRRWKLQVLDLRKNSHQDF [PRAME],2.64 ± 0.37,2.96 ± 0.31,,
HQRDGTLGALHTSSKPTALPSASS [SASS6],4.57 ± 0.25,4.55 ± 0.12,,
CLLSSNSRSLLTGGYNLASVSVWD [TLE6],2.4 ± 0.38,2.18 ± 0.18,,
QALLRISLDKVQRSLGPRAPSLRR [SERTAD3],2.68 ± 0.46,2.62 ± 0.36,,
DEKQQEANETLAEMEEELRYAPLS [VTI1B],5.55 ± 0.15,5.55 ± 0.2,,
YFYPRGGGSGGGAGGAGGGVTEEQ [JUNB],5.01 ± 0.3,4.89 ± 0.41,,
RPGQAPIGNPPVGPIGGMMPPQPG [ZNF207],4.14 ± 0.22,4.28 ± 0.38,,
YLYTYDSQITDSEHNSSLVSQQTG [ZNF8],3.73 ± 0.2,3.71 ± 0.11,,
SDEYKIRRERNNIAVRKSRDKAKM [CEBPB],4.75 ± 0.27,5 ± 0.17,,
AIGALLVCYHYYADWFMSLGVGLL [TMEM40],3.087 ± 0.018,2.86 ± 0.62,,
TLARCAKDILGFAVMFFIVFFAYA [PKD2L1],3.07 ± 0.66,2.68 ± 0.35,,
GTWDDAFATFCGGLAANGALQRLD [LRRC45],3.2 ± 0.052,3.12 ± 0.28,,

Sequence,protein stability index [1],protein stability index [2],"protein stability index (treatment: DMSO, c terminus: native)","protein stability index (treatment: MLN4924 1 uM, 8 h, c terminus: native)"
DDSPRSALAAATAAAAAAASAAAA [SPAG8],4.79 ± 0.39,4.86 ± 0.42,,
YPSYKVREKIETVKYPTYPEAEK [FUT8],,,4.07 ± 0.19,4.16 ± 0.57
QVSHDFLETRFKIQQLLEPQQYMA [FBXO34],3.85 ± 0.49,4.15 ± 0.29,,
ILKRTGQRYEHGRTLKSYLGLTNQ [ZNF649],2.44 ± 0.24,2.63 ± 0.099,,
GILHYAHGDSQQTHLLKQGRSSMG [CRY1],3.6 ± 0.23,3.52 ± 0.3,,
IHSHHDGVLRPTVRPGTPPDFILK [CTDNEP1],3.66 ± 0.18,3.72 ± 0.21,,
GNAHLGYSLVTHIPAGARDIQIVE [ADAMTSL2],3.03 ± 0.34,3.24 ± 0.13,,
SRLPAKCPGKGAWSIPWKWLFGAT [FKBP8],1.99 ± 0.22,2.05 ± 0.28,,
RPFDCPVCNKKFKMKHHLTEHMKT [ZBTB22],2.77 ± 0.23,3.47 ± 0.53,,
VDYKQSVLNVAGEAGGKQKAVEEE [SLC6A17],5.52 ± 0.44,5.68 ± 0.3,,
WERVHLIVAGGYDERVLENVEHYQ [ALG2],2.33 ± 0.19,2.48 ± 0.3,,
VLKTSRSTPLSPAYISLVEEEDQH [KLHL13],4.77 ± 0.13,4.91 ± 0.17,,
APELVERVQSVDFMRTDPVCQKLL [KLHL14],3.85 ± 0.36,4.12 ± 0.2,,
MDNYADLSDTELTTLLRRYNIPHG [EMD],3.19 ± 0.11,3.37 ± 0.15,,
ASKEEKEDWLSHALSRKKSQGLAR [FBF1],4.57 ± 0.18,4.57 ± 0.32,,
DLNNCKNNLEPILEGYISNLRKQL [KRT71],2.58 ± 0.21,2.76 ± 0.5,,
IETEPTVHHLPLSTEKVVQETVLV [EPB41L3],4 ± 0.11,3.84 ± 0.28,,
LYWRDIKQTGIVFGSFLLLLFSLT [RTN1],2.52 ± 0.22,2.35 ± 0.23,,
EKRGCPRTALEYCKLILSLEPDED [TCF25],3.37 ± 0.17,3.42 ± 0.097,,
AAVKLADFGLAIEVQGDQQAWFGF [CAMK2B],2.33 ± 0.75,2.62 ± 0.77,,
